In article PMC10659578, “Mechanism of stepwise electron transfer in six-transmembrane epithelial antigen of the prostate (STEAP) 1 and 2” (eLife, 2023) one finds Km data, which are given here for two substances.

The subject of the data set is T1, Cc1cc2c(cc1C)N(C[C@H](O)[C@H](O)[C@H](O)COP(=O)(O)OP(=O)(O)OC[C@H]1O[C@@H](n3cnc4c(N)ncnc43)[C@H](O)[C@@H]1O)c1[nH]c(=O)[nH]c(=O)c1N2.
T1 construct: full-length, expressed and purified as in Kim et al. 2016; detergent-solubilised
Kind of data set: rapid-scan stopped-flow heme reduction (A427), kobs vs [FADH-]. The format is biochemical, Oryctolagus cuniculus. Conditions: fast phase, single-turnover heme reduction, anaerobic, 20 mM HEPES pH 7.5, 150 mM NaCl, 0.1% LMNG.

STEAP1 (Oryctolagus cuniculus; L230G), sequence (chain, as listed by the source L230G): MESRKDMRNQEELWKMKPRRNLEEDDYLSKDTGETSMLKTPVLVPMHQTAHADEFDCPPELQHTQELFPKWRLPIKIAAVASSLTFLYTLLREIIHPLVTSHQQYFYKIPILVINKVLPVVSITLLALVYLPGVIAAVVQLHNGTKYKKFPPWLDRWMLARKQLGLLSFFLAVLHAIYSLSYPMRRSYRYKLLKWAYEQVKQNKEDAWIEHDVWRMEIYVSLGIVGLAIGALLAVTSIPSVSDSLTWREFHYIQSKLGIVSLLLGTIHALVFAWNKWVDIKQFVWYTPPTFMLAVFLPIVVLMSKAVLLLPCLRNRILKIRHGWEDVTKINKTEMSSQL

For STEAP1 (Oryctolagus cuniculus), the Km (60% of change) is 4.7 µM.
As for STEAP1 (Oryctolagus cuniculus; L230G), the Km (79% of change) was 3.6 µM.

The term Km denotes the concentration of substrate that gives half-maximal velocity.
